Experiments:
IL-6R = assay: Co-immunoprecipitation of CIRP and IL-6R; format: binding; conditions: Co-IP, n = 3
Description: Cells were divided into control and test groups. For transfection, solution A (plasmid diluted in Opti-MEM) and solution B (Lipofectamine 2000, Life Technologies, USA, diluted in Opti-MEM) were mixed at a 1:2 plasmid-to-lipofectamine ratio. After 6 h, the medium was replaced with DMEM, and GFP fluorescence was observed 24–48 h post-transfection to assess efficiency. Cells were divided into PBS, IL-6R, and CIRP (1 μg/mL for 24 h) groups for further analysis.
The beads were washed twice with lysis buffer to remove unbound proteins. Bound proteins were eluted by boiling the beads in sample buffer at 95°C for 3 min and subjected to Western blot analysis.

microglia [1] = assay: Cytokine mRNA and release in CIRP-stimulated microglia (RT-qPCR, ELISA); format: cell-based, mouse
Description: ELISA was used to quantify CIRP, MD2, IL-6, and TNF-α concentrations in blood and cerebrospinal fluid samples. Samples were processed and stored under standardized conditions to preserve protein integrity. Each target protein was measured using commercial ELISA kits, following the manufacturer’s instructions: Mouse CIRBP ELISA Kit (CSB-EL005440MO, CUSABIO), Mouse TNF-α ELISA Kit (EK282, Lianke Bio), Mouse IL-6 ELISA Kit (CSB-E04639m, CUSABIO), and […].
Primary cortical neurons were isolated from embryonic day 16–18 (E16–E18) C57BL/6 mouse embryos as previously described, and cultured in Neurobasal medium supplemented with B27 and GlutaMAX (Gibco).Primary microglial cells were isolated from the cortices of neonatal (day 1) C57BL/6J mice. After disinfection with 75 % ethanol, the skin and skull were removed, and the brains were placed in ice-cold HBSS. The meninges were peeled off, the cortex was collected, and the hippocampus was discarded. Tissues were digested with 0.25 % trypsin at 37 °C for 12 min, centrifuged at 1200 rpm for 5 min, and resuspended in complete medium. The suspension was transferred to a T75 flask with 15 mL of complete medium. […]
To mimic ischemic conditions, neurons at DIV7 were subjected to OGD. […] The supernatants were collected for subsequent CIRP quantification. […]

microglia [2] = assay: IL-6 release from CIRP-stimulated microglia, ELISA (TCC vs TC); format: cell-based, mouse; conditions: peptides 10 μM pre-treated 0.5 h, then rmCIRP 1 μg/mL 24 h, n = 3
Description: To validate the effects of TCC and TC in vitro, microglial cells were pre-treated with the peptides (10 μM) for 0.5 h, followed by stimulation with recombinant mouse CIRP (rmCIRP, 1 μg/mL) for 24 h to establish an inflammation model.
ELISA was used to quantify CIRP, MD2, IL-6, and TNF-α concentrations in blood and cerebrospinal fluid samples. Samples were processed and stored under standardized conditions to preserve protein integrity. Each target protein was measured using commercial ELISA kits, following the manufacturer’s instructions: Mouse CIRBP ELISA Kit (CSB-EL005440MO, CUSABIO), Mouse TNF-α ELISA Kit (EK282, Lianke Bio), Mouse IL-6 ELISA Kit (CSB-E04639m, CUSABIO), and Rat TNF-α ELISA Kit (EK382, Lianke Bio).
After disinfection with 75 % ethanol, the skin and skull were removed, and the brains were placed in ice-cold HBSS. The meninges were peeled off, the cortex was collected, and the hippocampus was discarded. Tissues were digested with 0.25 % trypsin at 37 °C for 12 min, centrifuged at 1200 rpm for 5 min, and resuspended in complete medium. The suspension was transferred to a T75 flask with 15 mL of complete medium. After 14 days, microglial cells were harvested by shaking the flask at 270–280 rpm for 30 min, and the supernatant was collected. […] CIRP (1 μg/mL for 24 h) was added to the microglia, which were divided into PBS, CIRP, and CIRP + TCC groups. […]

[3] = target: T1, recombinant human IL-6 receptor alpha (IL-6Rα) (human, UniProt P08887 20-365); assay: SPR; human IL-6Rα immobilised on a CM5 chip; human CIRBP or TCC as analyte; conditions: both partners purified
T1 construct: Interleukin-6 receptor subunit alpha, human; UniProtKB P08887 is printed for the docking; also called rhIL-6Rα; rhIL-6R; source: recombinant
T1 sequence (looked up): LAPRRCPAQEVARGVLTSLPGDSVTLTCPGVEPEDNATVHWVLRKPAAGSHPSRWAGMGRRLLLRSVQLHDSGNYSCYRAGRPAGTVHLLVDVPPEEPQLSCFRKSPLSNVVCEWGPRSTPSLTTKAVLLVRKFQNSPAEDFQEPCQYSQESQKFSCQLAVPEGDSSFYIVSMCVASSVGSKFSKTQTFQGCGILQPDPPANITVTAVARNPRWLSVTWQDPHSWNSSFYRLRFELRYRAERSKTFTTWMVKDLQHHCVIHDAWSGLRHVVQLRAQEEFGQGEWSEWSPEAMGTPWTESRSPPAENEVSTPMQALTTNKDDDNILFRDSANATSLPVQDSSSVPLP

microglia [4] = assay: Microglial phagocytosis of CFSE-labeled RBCs; format: cell-based, mouse; conditions: CFSE-labeled erythrocytes 10:1, 4 h; TCC pretreatment then CIRP; n = 6
From the text: Primary cortical neurons were isolated from embryonic day 16–18 (E16–E18) C57BL/6 mouse embryos as previously described, and cultured in Neurobasal medium supplemented with B27 and GlutaMAX (Gibco).Primary microglial cells were isolated from the cortices of neonatal (day 1) C57BL/6J mice. After disinfection with 75 % ethanol, the skin and skull were removed, and the brains were placed in ice-cold HBSS. The meninges were peeled off, the cortex was collected, and the hippocampus was discarded. Tissues were digested with 0.25 % trypsin at 37 °C for 12 min, centrifuged at 1200 rpm for 5 min, and resuspended in complete medium. The suspension was transferred to a T75 flask with 15 mL of complete medium. After 14 days, microglial cells were harvested by shaking the flask at 270–280 rpm for 30 min, and the supernatant was collected. […]
The functional characteristics of microglial cells encompass not only the release of inflammatory cytokines but also their phagocytic activity. […] RBCs were labeled with either 0.5 μM or 5 μM CFSE, and immunofluorescence analysis determined that 5 μM CFSE was the optimal concentration for labeling (Fig. 7G). […]
RBCs were isolated via density gradient centrifugation and labeled with CFSE before being stereotactically injected into the right striatum. […] Cell viability was assessed using a Fixable Viability Dye, and flow cytometric analysis was subsequently performed. […]

B1: recombinant human CIRP (cold-inducible RNA-binding protein) (natural protein, UniProt Q14011 1-172, looked up)
chain: MASDEGKLFVGGLSFDTNEQSLEQVFSKYGQISEVVVVKDRETQRSRGFGFVTFENIDDAKDAMMAMNGKSVDGRQIRVDQAGKSSDNRSRGYRGGSAGGRGFFRGGRGRGRGFSRGGGDRGYGGNRFESRSGGYGGSRDYYSSRSQSGGYSDRSSGGSYRDSYDSYATHNE
notes: UniProtKB Q14011 is printed for the docking; also called rhCIRP; human CIRBP; source: recombinant
IL-6R
  interaction between CIRP and IL-6R: confirmed a interaction between CIRP and IL-6R
Microglia [1]; 24-hour CIRP stimulation with or without TCC, RT-qPCR, n = 3–6
  TNF-α and IL-6 mRNA in microglia: upregulated the transcription of pro-inflammatory cytokines TNF-α and IL-6 in microglia
Microglia [1]; rmCIRP 1 μg/mL, 24 h, ELISA, n = 3
  TNF-α secretion by microglia: the secretion of TNF-α was markedly increased
Microglia [2]
  IL-6 release in culture supernatants: significantly increased IL-6 levels
[3]
  Kd: 4.27 nM
Microglia [4]
  microglial phagocytosis of RBCs: significantly reduced in the CIRP group compared to the PBS group

Reference: paper PMC13227277, “Targeting CIRP and IL-6R-mediated microglial inflammation to improve outcomes in intracerebral hemorrhage” (Journal of Advanced Research, 2025)
